Laboratory results published in patent CN115991785A (SHANGHAI MIAOJU BIOTECHNOLOGY CO LTD; UNIV SHANGHAI JIAOTONG, dated 2023).

Legend:
[1] = target: T1, MATN3-Fc抗原 (MATN3-Fc antigen) (human, UniProt O15232 29-486, limits assumed); test: SPR (Biacore, CM5 chip, amine coupling, 1:1 binding model)
T1 construct: not shown: Fc part
T1 sequence (looked up): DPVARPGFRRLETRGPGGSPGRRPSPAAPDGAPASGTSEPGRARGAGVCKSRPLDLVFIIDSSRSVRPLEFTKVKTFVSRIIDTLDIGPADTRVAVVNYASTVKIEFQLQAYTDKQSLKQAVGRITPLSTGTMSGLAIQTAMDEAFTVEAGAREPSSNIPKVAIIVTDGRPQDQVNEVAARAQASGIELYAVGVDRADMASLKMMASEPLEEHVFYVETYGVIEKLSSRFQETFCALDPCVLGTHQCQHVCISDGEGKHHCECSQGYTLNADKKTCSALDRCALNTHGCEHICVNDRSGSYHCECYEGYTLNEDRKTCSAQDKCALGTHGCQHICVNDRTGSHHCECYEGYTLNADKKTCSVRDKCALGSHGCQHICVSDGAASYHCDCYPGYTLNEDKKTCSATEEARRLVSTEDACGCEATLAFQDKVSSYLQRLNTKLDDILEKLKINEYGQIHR

[2] = target: CD34-Fc抗原 (CD34-Fc antigen); test: as above
CD34-Fc抗原 (CD34-Fc antigen), sequence (P28906 32-290): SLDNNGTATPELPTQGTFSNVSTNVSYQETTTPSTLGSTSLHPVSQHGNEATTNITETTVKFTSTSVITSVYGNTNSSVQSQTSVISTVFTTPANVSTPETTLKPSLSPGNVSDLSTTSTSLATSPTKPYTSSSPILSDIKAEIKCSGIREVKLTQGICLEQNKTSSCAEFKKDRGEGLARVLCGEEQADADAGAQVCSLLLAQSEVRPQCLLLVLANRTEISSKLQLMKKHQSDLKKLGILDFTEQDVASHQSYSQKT

- Kd [1]: 0.00895 nM
- Kd [2]: 8.53 nM
B1: CD34×MATN3双特异性抗体 (CD34×MATN3 bispecific antibody, IgG1-scFv form) (bispecific antibody)
chain 1: EIQLQQSGPELMKPGASVKISCKASGYSFTSYYMHWVKQSQGKSLEWIGFIDPFNGGITYNQKFKGKATLTVDRSSSTAYMHLRSLTSEDSAVYYCARCYYNYDDEGRAMDYWGQGTSVTVSS
chain 2: DIQMTQSPSSLSASLGERVSLTCRASQDIGSSLNWLQQGPDGTFKRLIYATSSLDSSVPKRFSGSRSGSDYSLTISSLESEDFVDYYCLQYASSPYTFGGGTKLEIKR
chain 3: EVQLVQSGAEVKKPGASVKVSCKASGGTFSSYAISWVRQAPGQGLEWMGGIIPIFGTANYAQKFQGRVTITADKSTSTAYMELSSLRSEDTAVYYCARGQGYWFDPWGQGTLVTVSS
chain 4: DVQLTQSPSSLSASVGDRVTITCQASQDISNYLNWYQQKPGKAPKLLIYDASNLETGVPSRFSGSGSGTDFTFTISSLQPEDIATYYCQQYDNLPLTFGGGTKLEIKR
